B1: LINE1-mini (parent)
chain: GGCAGAGCUCAACACAGCGUGGCAAAGUGGCUGUGGCUAGACUGCC

Variants of B1 are the subject of this data set. Briefly: self-cleavage, relative activity (ratio to wild type); higher = more cleavage; in vitro, sequencing; the parent is a self-cleaving ribozyme.
Consider GGCAUAGCUCAACACAGCGUGGCAAAGUGGCUGUGGAUAGACUGCC, for which the self-cleavage was found to be 0.06.

Take GGCAUAGCUCAACACAGCGUGGCAAAGUGGCUGUGGGUAGACUGCC: the self-cleavage came to 0.07. The figure for GGCAUAGCUCAACACAGCGUGGCAAAGUGGCUGUGGUUAGACUGCC is 0.05. The figure for GGCACAGCUCAACACAGCGUGGCAAAGUGGCUAUGGCUAGACUGCC is 0.09; for GGCACAGCUCAACACAGCGUGGCAAAGUGGCUCUGGCUAGACUGCC it is 0.03; for GGCACAGCUCAACACAGCGUGGCAAAGUGGCUUUGGCUAGACUGCC it is 0.06. With GGCAUAGCUCAACACAGCGUGGCAUAGUGGCUGUGGCUAGACUGCC the figure was 0.08; with GGCAUAGCUCAACACAGCGUGGCAGAGUGGCUGUGGCUAGACUGCC, 0.12.

In the case of GGCAUAGCUCAACACAGCGUGGCACAGUGGCUGUGGCUAGACUGCC, the self-cleavage is 0.05. With GGCAUAGCUCAACACAGCCUGGCAAAGUGGCUGUGGCUAGACUGCC the figure was 0.05. The figure for GGCAUAGCUCAACACAGCUUGGCAAAGUGGCUGUGGCUAGACUGCC is 0.1. Consider GGCAUAGCUCAACACAGCAUGGCAAAGUGGCUGUGGCUAGACUGCC, for which the self-cleavage turned out to be 0.33. Turning to GGCACAGCUCAACACAGCGAGGCAAAGUGGCUGUGGCUAGACUGCC, the self-cleavage is 0.04.

Take GGCACAGCUCAACACAGCGGGGCAAAGUGGCUGUGGCUAGACUGCC: the self-cleavage came out at 0.06. In the case of GGCACAGCUCAACACAGCGCGGCAAAGUGGCUGUGGCUAGACUGCC, the self-cleavage was found to be 0.18.

As for GGCACAGCUCAACACAGCGUGGCAAAGUGGCUGUGGCGAGACUGCC, the self-cleavage is 0.03. On to GGCACAGCUCAACACAGCGUGGCAAAGUGGCUGUGGCAAGACUGCC, for which the self-cleavage is 0.09. With GGCACAGCUCAACACAGCGUGGCAAAGUGGCUGUGGCCAGACUGCC the figure was 0.05; with GGCAUAACUCAACACAGCGUGGCAAAGUGGCUGUGGCUAGACUGCC, 0.43. GGCAUACCUCAACACAGCGUGGCAAAGUGGCUGUGGCUAGACUGCC: the self-cleavage was found to be 0.11. With GGCAUAUCUCAACACAGCGUGGCAAAGUGGCUGUGGCUAGACUGCC the figure was 0.13; with GGCAUAGCUCAACACAGCGUGGCAAAGUGGCUGUGGCUAGAAUGCC, 0.38.

Consider GGCAUAGCUCAACACAGCGUGGCAAAGUGGCUGUGGCUAGAGUGCC, for which the self-cleavage was 0.04. With GGCAUAGCUCAACACAGCGUGGCAAAGUGGCUGUGGCUAGAUUGCC the figure was 0.08. As for GGCAUAGCUCAAUACAGCGUGGCAAAGUGGCUGUGGCUAGACUGCC, the self-cleavage stood at 0.11. With GGCAUAGCUCAAGACAGCGUGGCAAAGUGGCUGUGGCUAGACUGCC the figure was 0.23; with GGCAUAGCUCAAAACAGCGUGGCAAAGUGGCUGUGGCUAGACUGCC, 0.09.

Turning to GGCAUAGCUCAACACAGCGUGGCAAAGUGGCUGUGGCUAGACUGCA, the self-cleavage was 0.11. The figure for GGCAUAGCUCAACACAGCGUGGCAAAGUGGCUGUGGCUAGACUGCG is 0.13. The figure for GGCAUAGCUCAACACAGCGUGGCAAAGUGGCUGUGGCUAGACUGCU is 0.07; for GGCACAGCGCAACACAGCGUGGCAAAGUGGCUGUGGCUAGACUGCC it is 0.04. Take GGCACAGCCCAACACAGCGUGGCAAAGUGGCUGUGGCUAGACUGCC: the self-cleavage was determined as 0.04. The figure for GGCACAGCACAACACAGCGUGGCAAAGUGGCUGUGGCUAGACUGCC is 0.12. With GGCAUAGCUCAACACAGUGUGGCAAAGUGGCUGUGGCUAGACUGCC the figure was 0.1. For the variant GGCAUAGCUCAACACAGGGUGGCAAAGUGGCUGUGGCUAGACUGCC, the self-cleavage is 0.06. With GGCAUAGCUCAACACAGAGUGGCAAAGUGGCUGUGGCUAGACUGCC the figure was 0.07; with GGCAUAGCUCAACACAGCGUGGCAAAGUGGGUGUGGCUAGACUGCC, 0.05. Turning to GGCAUAGCUCAACACAGCGUGGCAAAGUGGAUGUGGCUAGACUGCC, the self-cleavage amounted to 0.04. With GGCAUAGCUCAACACAGCGUGGCAAAGUGGUUGUGGCUAGACUGCC the figure was 0.06. On to GGCACAGCUCAACACAGCGUGGCAAAGUGGCUGCGGCUAGACUGCC, for which the self-cleavage worked out at 0.06. With GGCACAGCUCAACACAGCGUGGCAAAGUGGCUGAGGCUAGACUGCC the figure was 0.06. With GGCACAGCUCAACACAGCGUGGCAAAGUGGCUGGGGCUAGACUGCC, the self-cleavage was found to be 0.06. Turning to GGCACAGCUCAACACAGCGUGGCAAAGUGUCUGUGGCUAGACUGCC, the self-cleavage is 0.17.

Turning to GGCACAGCUCAACACAGCGUGGCAAAGUGCCUGUGGCUAGACUGCC, the self-cleavage came out at 0.07. For GGCAUAGCUCAACACACCGUGGCAAAGUGGCUGUGGCUAGACUGCC, the self-cleavage turned out to be 0.06. For the variant GGCAUAGCUCAACACAUCGUGGCAAAGUGGCUGUGGCUAGACUGCC, the self-cleavage turned out to be 0.05. As to GGCAUAGCUCAACACAACGUGGCAAAGUGGCUGUGGCUAGACUGCC, the self-cleavage was 0.1. Regarding GGCACAGCUCAACACAGCGUGGCAAAGUGGCUGUUGCUAGACUGCC, the self-cleavage came out at 0.07. The figure for GGCACAGCUCAACACAGCGUGGCAAAGUGGCUGUCGCUAGACUGCC is 0.06; for GGCACAGCUCAACACAGCGUGGCAAAGUGGCUGUAGCUAGACUGCC it is 0.1. As to GGCAUGGCUCAACACAGCGUGGCAAAGUGGCUGUGGCUAGACUGCC, the self-cleavage stood at 0.07.

As for GGCAUCGCUCAACACAGCGUGGCAAAGUGGCUGUGGCUAGACUGCC, the self-cleavage was 0.16. Consider GGCAUUGCUCAACACAGCGUGGCAAAGUGGCUGUGGCUAGACUGCC, for which the self-cleavage stood at 0.16. The figure for GGCACAGCUCAACACAGCGUGGCAAAGUGGCUGUGGCUACACUGCC is 0.1. For GGCACAGCUCAACACAGCGUGGCAAAGUGGCUGUGGCUAAACUGCC, the self-cleavage stood at 0.1. Regarding GGCACAGCUCAACACAGCGUGGCAAAGUGGCUGUGGCUAUACUGCC, the self-cleavage was found to be 0.1. With GGCAUAGCUCAACACAGCGUGGCAAAGUGGCUGUGGCUCGACUGCC the figure was 0.06.

For GGCAUAGCUCAACACAGCGUGGCAAAGUGGCUGUGGCUGGACUGCC, the self-cleavage is 0.04. Take GGCAUAGCUCAACACAGCGUGGCAAAGUGGCUGUGGCUUGACUGCC: the self-cleavage worked out at 0.11. Consider GGCAUAGCUCAACACAGCGUGGCAAAGUGGCUGUGGCUAGACUGGC, for which the self-cleavage amounted to 0.08. With GGCAUAGCUCAACACAGCGUGGCAAAGUGGCUGUGGCUAGACUGUC the figure was 0.08; with GGCAUAGCUCAACACAGCGUGGCAAAGUGGCUGUGGCUAGACUGAC, 0.08. With GGCACAGCUCAACACAGCGUGGCAAAGUGGCCGUGGCUAGACUGCC the figure was 0.1. With GGCACAGCUCAACACAGCGUGGCAAAGUGGCAGUGGCUAGACUGCC the figure was 0.06. On to GGCACAGCUCAACACAGCGUGGCAAAGUGGCGGUGGCUAGACUGCC, for which the self-cleavage was determined as 0.07. With GGCAUAGUUCAACACAGCGUGGCAAAGUGGCUGUGGCUAGACUGCC the figure was 0.26; with GGCAUAGAUCAACACAGCGUGGCAAAGUGGCUGUGGCUAGACUGCC, 0.53; with GGCAUAGGUCAACACAGCGUGGCAAAGUGGCUGUGGCUAGACUGCC, 0.14. GGCAUAGCUCAUCACAGCGUGGCAAAGUGGCUGUGGCUAGACUGCC: the self-cleavage is 0.06. GGCAUAGCUCACCACAGCGUGGCAAAGUGGCUGUGGCUAGACUGCC: the self-cleavage is 0.04.

In the case of GGCAUAGCUCAGCACAGCGUGGCAAAGUGGCUGUGGCUAGACUGCC, the self-cleavage is 0.04. Consider GGCAUAGCUCAACACAGCGUGGCAAAGUGGCUGUGGCUAGUCUGCC, for which the self-cleavage came out at 0.08. The figure for GGCAUAGCUCAACACAGCGUGGCAAAGUGGCUGUGGCUAGCCUGCC is 0.07. The figure for GGCAUAGCUCAACACAGCGUGGCAAAGUGGCUGUGGCUAGGCUGCC is 0.06. With GGCAUAGCUCAACACAGCGUGGCGAAGUGGCUGUGGCUAGACUGCC the figure was 0.19; with GGCAUAGCUCAACACAGCGUGGCUAAGUGGCUGUGGCUAGACUGCC, 0.08; with GGCAUAGCUCAACACAGCGUGGCCAAGUGGCUGUGGCUAGACUGCC, 0.08. Consider GGCACAGCUCAACACAGCGUGGCAAAGUGGCUGUGGCUAGACGGCC, for which the self-cleavage stood at 0.13. With GGCACAGCUCAACACAGCGUGGCAAAGUGGCUGUGGCUAGACCGCC the figure was 0.04; with GGCACAGCUCAACACAGCGUGGCAAAGUGGCUGUGGCUAGACAGCC, 0.05; with GGCAUAGCUCAACACCGCGUGGCAAAGUGGCUGUGGCUAGACUGCC, 0.03.

Consider GGCAUAGCUCAACACGGCGUGGCAAAGUGGCUGUGGCUAGACUGCC, for which the self-cleavage was determined as 0.06. GGCAUAGCUCAACACUGCGUGGCAAAGUGGCUGUGGCUAGACUGCC: the self-cleavage worked out at 0.06.

Consider GGCAUAGCUCAACACAGCGUGGCAAGGUGGCUGUGGCUAGACUGCC, for which the self-cleavage worked out at 0.12. The figure for GGCAUAGCUCAACACAGCGUGGCAAUGUGGCUGUGGCUAGACUGCC is 0.09; for GGCAUAGCUCAACACAGCGUGGCAACGUGGCUGUGGCUAGACUGCC it is 0.11; for GGCAUAGCUCAACACAGCGUGGUAAAGUGGCUGUGGCUAGACUGCC it is 0.12. As for GGCAUAGCUCAACACAGCGUGGGAAAGUGGCUGUGGCUAGACUGCC, the self-cleavage amounted to 0.12. With GGCAUAGCUCAACACAGCGUGGAAAAGUGGCUGUGGCUAGACUGCC the figure was 0.11; with GGCAUAGCUGAACACAGCGUGGCAAAGUGGCUGUGGCUAGACUGCC, 0.03; with GGCAUAGCUAAACACAGCGUGGCAAAGUGGCUGUGGCUAGACUGCC, 0.03. As to GGCAUAGCUUAACACAGCGUGGCAAAGUGGCUGUGGCUAGACUGCC, the self-cleavage is 0.06.

Regarding GGCACAGCUCAACACAGCGUGGCAAAGUGGCUGUGCCUAGACUGCC, the self-cleavage stood at 0.06. With GGCACAGCUCAACACAGCGUGGCAAAGUGGCUGUGACUAGACUGCC the figure was 0.06. Turning to GGCACAGCUCAACACAGCGUGGCAAAGUGGCUGUGUCUAGACUGCC, the self-cleavage amounted to 0.04.

Regarding GGCAUAGCUCAACCCAGCGUGGCAAAGUGGCUGUGGCUAGACUGCC, the self-cleavage is 0.06. With GGCAUAGCUCAACUCAGCGUGGCAAAGUGGCUGUGGCUAGACUGCC the figure was 0.07; with GGCAUAGCUCAACGCAGCGUGGCAAAGUGGCUGUGGCUAGACUGCC, 0.06. The figure for GGCACAGCUCAACACAGCGUGGCAAAGUGGCUGUGGCUAGACUCCC is 0.04; for GGCACAGCUCAACACAGCGUGGCAAAGUGGCUGUGGCUAGACUACC it is 0.05. As to GGCACAGCUCAACACAGCGUGGCAAAGUGGCUGUGGCUAGACUUCC, the self-cleavage came out at 0.09. Consider GGCAUAGCUCAACAGAGCGUGGCAAAGUGGCUGUGGCUAGACUGCC, for which the self-cleavage is 0.09.

With GGCAUAGCUCAACAUAGCGUGGCAAAGUGGCUGUGGCUAGACUGCC, the self-cleavage was determined as 0.08. With GGCAUAGCUCAACAAAGCGUGGCAAAGUGGCUGUGGCUAGACUGCC the figure was 0.05. Consider GGCAUAGCUCUACACAGCGUGGCAAAGUGGCUGUGGCUAGACUGCC, for which the self-cleavage amounted to 0.04.

For the variant GGCAUAGCUCCACACAGCGUGGCAAAGUGGCUGUGGCUAGACUGCC, the self-cleavage was 0.03. For GGCAUAGCUCGACACAGCGUGGCAAAGUGGCUGUGGCUAGACUGCC, the self-cleavage turned out to be 0.02. The figure for GGCACAGCUCAACACAGCGUGGCAAAGAGGCUGUGGCUAGACUGCC is 0.1; for GGCACAGCUCAACACAGCGUGGCAAAGGGGCUGUGGCUAGACUGCC it is 0.02. With GGCACAGCUCAACACAGCGUGGCAAAGCGGCUGUGGCUAGACUGCC the figure was 0.05; with GGCAUAGCUCAACACAGCGUGGCAAAGUGGCUGUGGCUAGACUGCC, 0.14; with GGCAUAGCUCAACACAGCGUAGCAAAGUGGCUGUGGCUAGACUGCC, 0.28.

These data come from the RNAGym collection of RNA variant scans (doi:10.7554/elife.90254).
